T1: Human CXCR2 (human, UniProt P25025 1-360)
T1 sequence: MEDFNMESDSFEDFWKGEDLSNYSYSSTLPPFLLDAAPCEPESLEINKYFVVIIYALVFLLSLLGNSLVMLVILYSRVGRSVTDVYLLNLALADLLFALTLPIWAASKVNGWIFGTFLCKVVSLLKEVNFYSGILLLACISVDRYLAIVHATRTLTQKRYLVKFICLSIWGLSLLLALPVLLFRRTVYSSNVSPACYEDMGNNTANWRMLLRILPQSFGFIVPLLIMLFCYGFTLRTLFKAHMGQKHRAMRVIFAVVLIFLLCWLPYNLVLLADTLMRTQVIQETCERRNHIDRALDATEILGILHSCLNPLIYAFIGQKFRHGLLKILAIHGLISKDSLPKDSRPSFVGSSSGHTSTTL

T2: Cynomolgus CXCR2 (cynomolgus, UniProt Q28519 3-353 (rhesus entry))
T2 chain: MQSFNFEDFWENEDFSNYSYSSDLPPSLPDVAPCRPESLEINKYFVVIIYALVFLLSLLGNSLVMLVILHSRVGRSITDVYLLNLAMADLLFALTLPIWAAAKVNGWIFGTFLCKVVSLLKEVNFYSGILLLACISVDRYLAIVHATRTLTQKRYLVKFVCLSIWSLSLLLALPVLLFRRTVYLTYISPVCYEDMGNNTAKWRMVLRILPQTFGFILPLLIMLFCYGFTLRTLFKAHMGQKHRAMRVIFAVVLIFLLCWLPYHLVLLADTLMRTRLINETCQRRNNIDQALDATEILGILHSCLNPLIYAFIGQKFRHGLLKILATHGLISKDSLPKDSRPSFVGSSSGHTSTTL

B1: 54B12 (VHH, not shown: small tags and cut ends)
VHH: EVQLVESGGGLVQAGGSLTLSCAVSGSTFRINTMGWYRRAPGKQRELVAARDRGGYINYVDSVKGRFTVSRDNAKPTMYLQMNSLKPEDTAVYYCHAGTQDRTGRNFDRWGQGTQVTVSS
B2: 163D02 (VHH, not shown: small tags and cut ends)
VHH: EVQLVESGGGLVQAGGSLRLSCAASGRTFSDYAMGWFRQAPGKEREFVAAITWNGGRVFYTASVKGRFTISRDNAKNTMYLQMNSLKPEDTAVYYCAADKDRRTDYLGHPVAYWGQGTQVTVSS
B3: 163E03 (VHH, not shown: small tags and cut ends)
VHH: EVQLVESGGGLVQPGGSLRLSCVASGRIFSSNAMGWFRQAPGKEREFVAAITWRSGGSAYYADSAKGRFTISRDNAKNTVYLQMNSLKPEDTAVYYCAAGGSSWLSFPPDYWGQGTQVTVSS
B4: 097A09 (VHH, not shown: small tags and cut ends)
VHH: EVQLVESGGGLVQPGGSLRLSCVASGSIVRINTMGWYRQTPGKQRELVADITSGGNINYIDAVKGRFTISRDNTKNTVYLQMNSLKPEDTAVYYCNAEIVVLVGVWTQRARTGNYWGQGTQVTVSS
B5: 2B2 (VHH, not shown: small tags and cut ends)
VHH: EVQLVESGGELVQPGGSLRLSCAASGSILTINAMGWYRQAPGKQRELVVRRTRGGSTTYQDSVKGRFTISADIAKKTMYLQMNSLKPEDTAVYYCMLDDRGGVYWGQGTQVTVSS

The binders below were run against T1, Human CXCR2 (assay: cell-based or functional assay).

| HumanWBSC IC50 (rhGROα) [nM] | Human Chemotaxis IC50 (GROα) [nM] | Binder |
| --- | --- | --- |
| 19.7 |  | B1 |
| 6.6 |  | B2 |
| 9.4 | 1.3 | B3 |
| 11.6 | 4.8 | B4 |
| 29.5 | 50 | B5 |

Target: T2, Cynomolgus CXCR2
Assay: cell-based or functional assay

| FLIPR IC50, GRO-α induced intracellular calcium release [nM] | Binder |
| --- | --- |
| 4080 | B1 |
| 37.2 | B2 |
| 158 | B3 |
| 640 | B4 |
| 3850 | B5 |

Target: T1, Human CXCR2
Assay: cell-based or functional assay
Remark: another data set of the same source

| FLIPR IC50, GRO-α induced intracellular calcium release [nM] | [35S]GTPγS % inhibition max, GRO-α [%] | [35S]GTPγS accumulation IC50, GRO-α [nM] | Binder |
| --- | --- | --- | --- |
| 153 | 71.8 | 15.4 | B1 |
| 1.91 | 100 | 53.2 | B2 |
| 44.3 | 100 | 64.7 | B3 |
| 39.9 | 100 | 50.3 | B4 |
| 441 | 71.3 | 103 | B5 |
